From a protein production outcome set (Wang et al. 2014)

Experiment: label from the status in PepcDB records
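Further: failed if final PepcDB status was selected cloned or expressed and not failed if soluble or beyond.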

Sequence	protein production
MLVKFWGVRGSLPAPLTPAQVQSKIAAVVQRITLKDIESQDSRERFLASLPKWLFGTIGSNTACVEVETDDGGHLIFDAGTGIRELGIDLMKRPDYGKNTTYHLFFSHFHWDHIQGLPFFNPAYDPRNKIIVYSTRKKAKEFLEDQMKYPYFPISMLGEDGFGASFEFKYIEPDQKYVEIGDTKIGWHRVRHPGGCTAYSVIEKGKKIIYSTDTELRPRDFERNEQNAEFYTDAEMLIIDAQYTLTDSILKEGWGHSTFSVAIDFAAGWNIKSIALFHHEPTYHDKKVFSLKQTADWYRDCSRAPDIKIFIAQEGRSFLI	failed
MTKIACVIVTYNRKQLLEEALNSVLIQTESPEYVFVIDNASTDGTEKYINDKFNFDNRQWHYVRCSQNLGGSAGFAQGMRLALQTDCSWISISDDDAIFEPGYFAALRKGIKQYPEQSVFSGSVLLPDGKHDMMHREVITNSATLTVRCVTDETYKHDFSYDIFSFVGILLSRQVIEAIGLPEQDYFIRFDDFEYAVRALKFGRFMNLSALEHHHHHH	failed
MGPFLMRILALGLVAGAALAQGVQAWLERGERLLSEGAYAEAVAAFEEVLRQDYGQFQAHLGLGVALVRLGRLEEARFAFDQMTRVFPDRYEGHFNLGQVYLRMGEAGKAAEAFAKAAAIAPREEAYLAWSGALLQEGKAREAAAVLERGLSPERSPAYRLALAQALYAAGEREAAVPHLYAALNREPGRAEAWDLLARVLAEVGLADRARREVERGLEAVQDPKGKALLLLRKGTLVEDPEPLWREALALDPDLWQAAYLLGRRRLEAGDLKEGLRWLQEAYAKGQDPEVALALAAAYLKAKDYANAYRYAKEAGPAGAFLQAQAAQGLGRRQEALKLLEGIASPQALALRGSLLLEEGQGEEAVAALQAAYEATRDPQVGVNLGAALVLVKRFGQAELVLREVLAKDPSSAAAWYNLGLALRGLGRQAEADRALRQAAALGSREARALLGR	failed
MSLTPTVMVVDESRITFLAVKNALEKDGFNVIWAKNEQEAFTFLRREKIDLVFVDVFEGEESLNLIRRIREEFPDTKVAVLSAYVDKDLIINSVKAGAVDYILKPFRLDYLLERVKKIISSTPRVTVSLRKNIEEGHHHHHH	not failed
MLLYMRFTENFERAKKEALMSLEIALRKGEVDEDIIPLLKKINSIENYFTTSSCSGRISVMEMPHFGDKVNAKWLGKWHREVSLYEVLEAIKKHRSGQLWFLVRSPILHVGAKTLEDAVKLVNLAVSCGFKYSNIKSISNKKLIVEIRSTERMDVLLGENGEIFVGEEYLNKIVEIANDQMRRFKEKLKRLESKINALNR	not failed
MVPVVSPGPLVPVADFGPLDRLRGWIVTGLITLLATVTRFLNLGSLTDAGTPIFDEKHYAPQAWQVLNNHGVEDNPGYGLVVHPPVGKQLIAIGEAIFGYNGFGWRFTGALLGVVLVALVVRIVRRISRSTLVGAIAGVLLICDGVSFVTARTALLDGFLTFFVVAAFGALIVDRDQVRERMHIALLAGRSAATVWGPRVGVRWWRFGAGVLLGLACATKWSGVYFVLFFGAMALAFDVAARRQYQVQRPWLGTVRRDVLPSGYALGLIPFAVYLATYAPWFASETAIDRHAVGQAVGRNSVVPLPDAVRSLWHYTAKAFHFHAGLTNSAGNYHPWESKPWTWPMSLRPVLYAIDQQDVAGCGAQSCVKAEMLVGTPAMWWLAVPVLAYAGWRMFVRRDWRYAVVLVGYCAGWLPWFADIDRQMYFFYAATMAPFLVMGISLVLGDILYHPGQGSERRTLGLIVVCCYVALVVTNFAWLYPVLTGLPISQQTWNLEIWLPSWR	failed
MPIIKSSRVNIGRFTIGGSIPIVIISIFDHDAKSLTEKFETKKLSDKNLYEIRFDLFDKVNIDEELEIIRALDEMDIDYIFTYRGHDPEKIYETAITKMVPAVDMDLSLLNKVNRRSPDTRIMVSYHTDSSKDMIEKLDEMLKANADIVKVACNYKDEKNFFKDLIEIAQRKEISGKPVLFIPMGKSFLRVISAYYVSDMVYAKYDKETAMGQPDPDYYNKAFSLFNYIG	failed
MGHHHHHHSHMKLVTRSCDPGEKLDSKIGVLIGKGLHEFDSLKDPEVNEFRRKMRKFSEEKILSLVGLSWMDWLKQTYPPEHEPSIPENLEDKLYGGKLIVAVHFENCQDVFSFQVSPNMNPIKVNELAIQKRLTIHGKEDEVSPYDYVLQVSGRVEYVFGDHPLIQFQYIRNCVMNRALPHFILVECCKIKK	failed
MDKQAILDNIHQTWQEEANAISRLPEVTSEEALVKTVEKIAECTGKIVVAGCGTSGVAAKKLVHSFNCIERPAVFLTPSDAVHGTLGVLQKEDILILISKGGNTGELLNLIPACKTKGSTLIGVTENPDSVIAKEADIFFPVSVSKEPDPFNMLATASTMAVIASFDAVIVCLMTYMNYTKEQFSVIHPGGAVGNKLLNK	not failed
MFSQTIFFGMKQSARGVSVAFSTLQEASMHKRVLIQAASALLALQFMAVPVFAAGSSGGGSDQTVTQCKKGEVWDKKKKKCVAPQEGMLDDDSIYDAGHALAMAGRYDEAISVLTLAANKQDPRILNYLGYSHRHSGRVTVGLGYYEEALRIDPNYTLVREYLGEAHLQIGDLAGAQQQLMEIEKRTGKGSREYGMLSEQIDHFMRS	failed
MQLPLHQVAQPAFYISVVPDMVGGRLSSHDRDLLGLAHQLAGQDGAVLAVVFGEHKESAFATAGVDRLLVLQGSEFEGYAPEQRVQGLRAVDNQFSPRHWLLPDSRTGGGELGRRFAAALGERPATRVWQVKDGQCIGRAGAGLQDLARPVVRLILAAAECAEPVSETRHEALPVELSTSVARSLARIEDLGAVAVDPAAIPMAEAEFIFSGGNGVKDWPLFHQTAAALGATEGASRVAVDDGFMARDRQVGASGIWVTARVYVAVGISGAIQHLQGIGACDKVVAINLDPGCDMIKRADLSVIGDSAEILKALIAAVAAYRNDAKRDAA	failed
MGRIAWVVRADRPCAATNTHINEPPRRALTSGPGVFIRRTVAAAATRRRYPSAMAIHADTHDDLRLFQTGEHACGYWSDRRARDLVLDPHDPRLGAIYPQALAWGFRRSGDLVYRPHCERCRACVPVRIAVDAFHPDRSQRRCLTRNQDLVVRVVAAERTDEQLALYRQYLKYRHPGGGMDEHGATEFDQFLIGGWSHGRFLEIREPAIAHLPGRLLAVAVTDVTEHALSAIYTFYAPEAAARSLGTFAILQQIQWAQRERRAHVYLGYWIEGHAKMNYKRRFSALEAYDGRHWCDLPAHPSGT	failed
MHVNPLISVARSKASALFAALALVLVVTLTLAGCSSDKSGETTAEAKKDPSSIRVVALDWRYEEILHALGITPVGIVEIGKSKEPQTLKGELEGVTSVGQAKQPNLEVIQSLEPDLILASPTRQAAIMDQLKEIAPTHAYGDTSYTEVLDAMDDIATKVGAEDKAKEVRTRIESKIAQAKNKVEPGTRTALIGWSKNTLYTWVKDSFAGSLLTAAGYEYGYDGEKSAIESKTDVAELTGDKLPEMKLDVMYLYNDIEGFRSSPYADVVSNIVDVEQDTWSRSRGPLAAEAMLDQIINS	failed
MGMVFGKIAVETPKYTVTKSGDGYEIREYPPAVAAEVTYDASEFKGDKDGGFQLLAKYIGVFGKPENEKPEKIAMTAPVITKEGEKIAMTAPVITKESEKIEMTSPVVTKEGGGEGRKKLVTMQFLLPSMYKKAEEAPRPTDERVVIKEEGGRKYGVIKFSGIASESVVSEKVKKLSSHLEKDGFKITGDFVLARYNPPWTLPPFRTNEVMIPVE	failed
MLIDSLHVSFDSFNFESILPMLVLVCGGIFTLLINAFTSRFSRNLNVFLCMLFLVLDFLVVLGLEEQENAFFGFLSLDTLSLISQSIVLISAFLLIFLALSKERFNEFQTAEFYSLYLFIVAGFQFMVSSNHLLLILIGLETASLPLCVLMALSDKRYGLEAGIKYFTMGAMASAFFAMGAMAFYLLTGSLNLEVITLYLHTEGITNPMLFAMGAIFLIGAIGFKVSLVPFHTWMPDVYEGNNPVFASYISIVPKIAGFVVATRLFGAFIDTRTAWVEDIFYVLILMTITIPNFIALWQEDVKRMLAYSSISHSGFALACVFIHTEDSQQAMFVYWFMFAFTYIGAFGLLWLLKSREKTWDERYDHPYSKFNGLIKTHPLVAILGAIFVFGLAGIPPFSVFWGKFLAVESALESNHILLAVVMLVNSAVAAFYYFRWLVAMFFNKPLQSYAQNDIYTQNATMPIYAVIIAMALACLFSVFMMRGLLEFVA	failed
QKRAWITAPVALREGEDLSKKNPIAKIHSDLAEERGLKITYKYTGKGITEPPFGIFVFNKDTGELNVTSILDREETPFFLLTGYALDARGNNVEKPLELRIKVLDINDNEPVFTQD	not failed
MKIKTSYLIYAVIATVFAGLSMVTDIFEKGNFEAIFSNLGMIIGLSILAYILITMAKSFIDLVINELKN	failed
PECDWWALGVFAYEMFYGQTPFYADSTAETYGKIVHYKEHLSLPLVDEGVPEEARDFIQRLLCPPETRLGRGGAGDFRTHPFFFGLDWDGLRDSVPPFTPDFEGATDTCNFDLVEDGLTAMVSGGGETLSDIREGAPLGVHLPFVGYSYSCMALRDSEVPGPTPMEVEAEQLLEPHVQAPSLEPSVSPQDET	failed
MGSGSMLQSWNLKTSKRTGSFDAKSSINAVAISPDGNTLATGIRDNAIKLWNINDGKLIHTLTGHQGQVRTVAFSPDGTLLASGSSDGTVKLWNATTGKEINTFTAHKEQVWSVAFNPDGKTLASTGQDGSVKIWGVSPQLEHHHHHH	not failed
MDSMKLYDAIIGTVEKHIAPIAAKVGNQPHVRAMRDGFIVAMPFIIVGSFILIFAFPPFAEDTTFTFGRLWLDFATTHFDTIMMPFNMSMGIMTIFVSLGVAYSLAKAYKMDGITSAVLSLMCFLLVAAPAQDGSLAMKHMGGTGIFTAVMCAFFAVELYRFMKKHNITIRMPEQVPPAIARSFEVLLPVLAVFVTLYPLSIFVQTQYDMLIPDAVMAMFKPLISASNTLPAIIGALLMCQLLWFAGIHGAAIVVGLLSPIFLTNISGNIDAFVAGQPVPNIFTQPFWDFYIFIGGSGATLALVLLMSFSRSVHLKSIGRMSAVPGFFQINEPVIFGSPIVMNPTLFIPFVFAPVINATIAYFAVHLGFVGMGVATTPWTTPAIIGASWGSGWTFSPVLLVVGLLILDLLIYFPFFKMFEKQMLEQELPTTKETKQAEQPAGEGVTA	failed
MPETSSMLESVVAYLQQAEPSSVYAVLFLSAYFENVIPPIPGDVPIALAGYLLTFSHITFVAALFWSTIGSVAGFMTVFLLSRFLGLKLYAVGECEARHKFAQSIHKLFPPSEMEVVRQKFSGHGYLAVVVNRFLFGSRAVICIVAGMLHLKIPLVLAASFVSSLLWNILLLSTGYLLGSNWDKIGQYAVLYTAPFTILFTGFIVWKVVAYLKKRKQQADGA	failed
MGFLNKLLSSEGPRKPKVKFDLQKCKVLLKGGENRIRLQKSKLAVCNLLASPVPALKNLFNKNSVKLQQREVAVLLEGGKDELARIRAEQMVRDELLIESYEIVEVLCETLLTRHNLLALNFHATKENPYPPLPPEIAEAVCSIAFASCRLDASELQTLTEMLASRFGPELIDSACAGQPSQRVWGVNSLVNPRLYSKLLYSVPDGNVVLQKLQDIADMFQLEWKAPAEFEELKDHSVLDSTASTPVFSGNAQRARYLPEASSFSDEKIGDDVFCTNESEQTEEGRDPSDDLSARLEALKRNR	failed
MDKPILKDSMKLFEALGTIKSRSMFGGFGLFADETMFALVVNNQLHIRADQQTSSDFETQGLKPYVYKKRGFPVVTKYYAISSELWESSDRLIEVAKKSLENAKL	not failed
MINKTLTVTLTSIAALAGLSGLANAQEYTNSTHTTSQQSNTYNSQVEQETNLGLTNKDIVKVKDGDTLYQIALSHHLSLEQLYNFNPGVTALIHPGDLIAVSEKGAAKLENKEINYAQTYAETTAFNQSDVVAQSVSASTTNVTGYNIVPTSAPTNTMHDSYHSSVNTPVSYQHVTTANQGNRYSFGNCTYYAFDRRQQLGRSIGSYWGNANNWAYSAKNAGLTVDNRPEVGAIFQTTAGYYGHVGVVEHVNQDGSVYVSEMNWNGHYNRVTNRTITNTSSYNFIH	failed
